{
  "source": "patent US20230025280A1",
  "about": "“PH RESPONSIVE COMPOSITIONS, FORMULATIONS, AND METHODS OF IMAGING A TUMOR” (ONCONANO MEDICINE, INC, priority 2019, published 2023)",
  "test": "Phase 1 (1a/1b) pharmacokinetics: plasma concentrations after single IV dose (validated direct fluorescence reader assay), noncompartmental analysis",
  "assay_type": "in vivo, human",
  "conditions": "for AUC0-24 hr / AUCall / AUClast / C10 m / Cmax / T1/2 / Tmax: 1.2 mg/kg single IV; for Plasma Conc: 1.20 mg/kg",
  "text": "Phase 1 is a single-Principal Investigator, non-randomized, open-label, single-arm, cross-sectional study to evaluate the safety, PK profile, and imaging feasibility of Compound 1 in patients with solid cancers who require surgical excision. The main purpose of this study was to investigate the safety, PK, and feasibility of Compound 1 as an intra-operative optical imaging agent to detect tumors and metastatic lymph nodes in solid cancers. The study was intended to investigate the optimal dose range of Compound 1 for an adequate TBR and CNR of fluorescence obtained intraoperatively at 24 (±8) hours post dosing and with ex vivo specimens using ICG compatible cameras and imaging devices.\nPhase 1 enrolled 30 patients with solid cancers (HNSCC, breast cancer, esophageal cancer, or colorectal cancer) who have a biopsy-confirmed diagnosis of respective tumor types and are scheduled to undergo surgical resection of the tumor. The study design included a standard 3+3 design for the dose-escalation portion (Phase 1a; N=18 maximum) followed by a dose-expansion portion (Phase 1b; N=15). All patients received a single I.V. dose of Compound 1, followed by routine surgery approximately 24 hours after infusion of Compound 1.\nPhase 1a was a dose-finding study performed in 5 cohorts of 3 patients each. The dose levels evaluated were […], and 1.2 mg/kg, in this sequence. Inter-cohort dose escalation took place after the last patient in the previous cohort completed the Day 10 safety assessment. Safety, PK, and imaging feasibility were evaluated in both the Phase 1a and 1b portions of the study. Patient safety is assessed during the study and for up to 10 days post-dose.\nStudy design: Single Compound 1 IV dose was administered as a 1-5 minute IV infusion to patients in five cohorts (0.1, 0.3, 0.5, 0.8, and 1.2 mg/kg) with three patients per cohort in Phase 1a and 15 patients at a dose of 1.2 mg/kg in Phase 1b. Patient demographic information including tumor types is presented in Table 4 and 5 for Phase 1a and Table 5 for Phase 1b. Intertek Pharmaceutical Services (San Diego, Calif.) determined Compound 1 plasma concentrations using a validated direct fluorescence reader assay. Pacific BioDevelopment (Davis, Calif.) performed the PK analysis.\nSample collection: Blood samples were collected prior to infusion and at 10 minutes and 0.5, 1, 3, 8, 24, 48, 72, and 240 hours after infusion.\nAnalysis: Plasma concentration versus time profiles were generated for each patient. Pharmacokinetic parameters were estimated using Phoenix WinNonlin (version 8.0). According to SOP, concentrations reported as BQL were set to 0 except for the 0.5 h sample for subject #ON1102, which was set to LLOQ/2 ([…] value used in parameter calculations) and the 24 and 48 h samples.\nIf the coefficient of determination for the terminal slope estimation was less than 0.8, T1/2 was not reported (NR). AUC extrapolated to infinity is not reported for any data set because in all cases the % extrapolated AUC was greater than 20% and thus the AUCinf estimate would not be reliable. The concentration at 10 minutes, the first time point measured (C10m), was also reported for each patient.\nThe area under the plasma concentration versus time curves from dosing to the last time point with a measurable concentration (AUClast) was estimated by the linear trapezoid method. The last three or more time points were used to estimate the elimination rate constant (λz) which was used to estimate the terminal-phase half-life (T1/2) and AUC from zero to infinity (AUCINF) from the following equations: […]",
  "note": "Where “and” joins values, the source holds several entries; their conditions need not be identical. Identical values can stand only once. Entries after “also recorded” stand apart in the source; their conditions may differ.",
  "data": [
    {"substance": "PEO90-140-b-P(DBA60-150-r-ICG0-3-r-AMA0-3) [Compound 1]", "values": [
      {"measurement": "AUC0-24 hr", "setting": "Phase 1a, mean", "result": 495, "unit": "µg·h/mL"},
      {"measurement": "AUCall", "setting": "Phase 1a, mean", "result": 842, "unit": "µg·h/mL"},
      {"measurement": "AUClast", "setting": "Phase 1a, mean", "result": 682, "unit": "µg·h/mL"},
      {"measurement": "C10 m", "setting": "Phase 1a, mean", "result": 31.7, "unit": "µg/mL"},
      {"measurement": "Cmax", "setting": "Phase 1a, mean", "result": 31.7, "unit": "µg/mL"},
      {"measurement": "T1/2", "setting": "Phase 1a, mean", "result": 36.5, "unit": "h"},
      {"measurement": "Tmax", "setting": "Phase 1a, mean", "result": 0.170, "unit": "h"},
      {"measurement": "AUC0-24 hr", "setting": "Phase 1a, median", "result": 563, "unit": "µg·h/mL"},
      {"measurement": "AUCall", "setting": "Phase 1a, median", "result": 1020, "unit": "µg·h/mL"},
      {"measurement": "AUClast", "setting": "Phase 1a, median", "result": 891, "unit": "µg·h/mL"},
      {"measurement": "C10 m", "setting": "Phase 1a, median", "result": 33.0, "unit": "µg/mL"},
      {"measurement": "Cmax", "setting": "Phase 1a, median", "result": 33.0, "unit": "µg/mL"},
      {"measurement": "T1/2", "setting": "Phase 1a, median", "result": 32.5, "unit": "h"},
      {"measurement": "Tmax", "setting": "Phase 1a, median", "result": 0.170, "unit": "h"},
      {"measurement": "Plasma Conc", "setting": "Phase 1a, 0.170 hr, individual subject", "result": "28.0 µg/mL and 34.1 µg/mL and 33.0 µg/mL"},
      {"measurement": "Plasma Conc", "setting": "Phase 1a, 0.170 hr, mean", "result": 31.7, "unit": "µg/mL"},
      {"measurement": "Plasma Conc", "setting": "Phase 1a, 0.500 hr, individual subject", "result": "23.9 µg/mL and 30.5 µg/mL and 31.8 µg/mL"},
      {"measurement": "Plasma Conc", "setting": "Phase 1a, 0.500 hr, mean", "result": 28.7, "unit": "µg/mL"},
      {"measurement": "Plasma Conc", "setting": "Phase 1a, 1.00 hr, individual subject", "result": "23.9 µg/mL and 32.1 µg/mL and 25.8 µg/mL"},
      {"measurement": "Plasma Conc", "setting": "Phase 1a, 1.00 hr, mean", "result": 27.3, "unit": "µg/mL"},
      {"measurement": "Plasma Conc", "setting": "Phase 1a, 3.00 hr, individual subject", "result": "24.5 µg/mL and 28.4 µg/mL and 27.8 µg/mL"},
      {"measurement": "Plasma Conc", "setting": "Phase 1a, 3.00 hr, mean", "result": 26.9, "unit": "µg/mL"},
      {"measurement": "Plasma Conc", "setting": "Phase 1a, 8.00 hr, individual subject", "result": "20.5 µg/mL and 24.4 µg/mL and 28.4 µg/mL"},
      {"measurement": "Plasma Conc", "setting": "Phase 1a, 8.00 hr, mean", "result": 24.4, "unit": "µg/mL"},
      {"measurement": "Plasma Conc", "setting": "Phase 1a, 24.0 hr, individual subject", "result": "BQL (BQL (<10 μg/mL), set = 0 for PK analysis) and 18.3 μg/mL and 15.6 μg/mL"},
      {"measurement": "Plasma Conc", "setting": "Phase 1a, 24.0 hr, mean", "result": 11.3, "unit": "µg/mL"},
      {"measurement": "Plasma Conc", "setting": "Phase 1a, 48.0 hr, individual subject", "result": "BQL (BQL (<10 μg/mL), set = 0 for PK analysis) and 15.6 μg/mL and 10.8 μg/mL"},
      {"measurement": "Plasma Conc", "setting": "Phase 1a, 48.0 hr, mean", "result": 8.80, "unit": "µg/mL"},
      {"measurement": "Plasma Conc", "setting": "Phase 1a, 72.0 hr, individual subject", "result": "BQL (BQL (<10 μg/mL), set = 0 for PK analysis)"},
      {"measurement": "Plasma Conc", "setting": "Phase 1a, 72.0 hr, mean", "result": 0.00, "unit": "µg/mL"},
      {"measurement": "Plasma Conc", "setting": "Phase 1a, 240 hr, individual subject", "result": "BQL (BQL (<10 μg/mL), set = 0 for PK analysis)"},
      {"measurement": "Plasma Conc", "setting": "Phase 1a, 240 hr, mean", "result": 0.00, "unit": "µg/mL"},
      {"measurement": "Exposure in relation to dose", "setting": "Phase 1a, 0.1-1.2 mg/kg", "result": "dose-related; also recorded: increased proportionally with dose"},
      {"measurement": "Mean AUC0-24hr", "setting": "Phase 1b, 1.2 mg/kg", "result": 638, "unit": "µg·h/mL"},
      {"measurement": "Mean terminal-phase half-life", "setting": "Phase 1b, 1.2 mg/kg", "result": 46.4, "unit": "h"},
      {"measurement": "AUC0-24 hr", "setting": "Phase 1b, individual subject", "result": "625 µg·h/mL and 606 µg·h/mL and 502 µg·h/mL and 787 µg·h/mL and 730 µg·h/mL and 585 µg·h/mL and 740 µg·h/mL and 630 µg·h/mL and 684 µg·h/mL and 626 µg·h/mL and 693 µg·h/mL and 562 µg·h/mL and 565 µg·h/mL and 520 µg·h/mL and 721 µg·h/mL"},
      {"measurement": "AUCall", "setting": "Phase 1b, individual subject", "result": "2690 µg·h/mL and 2150 µg·h/mL and 2120 µg·h/mL and 1460 µg·h/mL and 2550 µg·h/mL and 1100 µg·h/mL and 2740 µg·h/mL and 1170 µg·h/mL and 939 µg·h/mL and 1090 µg·h/mL and 3190 µg·h/mL and 1120 µg·h/mL and 747 µg·h/mL and 3350 µg·h/mL"},
      {"measurement": "AUClast", "setting": "Phase 1b, individual subject", "result": "1430 µg·h/mL and 1280 µg·h/mL and 1110 µg·h/mL and 1270 µg·h/mL and 1480 µg·h/mL and 961 µg·h/mL and 1580 µg·h/mL and 1020 µg·h/mL and 684 µg·h/mL and 971 µg·h/mL and 1740 µg·h/mL and 968 µg·h/mL and 957 µg·h/mL and 520 µg·h/mL and 1780 µg·h/mL"},
      {"measurement": "C10 m", "setting": "Phase 1b, individual subject", "result": "30.3 µg/mL and 31.4 µg/mL and 25.5 µg/mL and 40.0 µg/mL and 47.6 µg/mL and 32.6 µg/mL and 31.3 µg/mL and 36.5 µg/mL and 32.1 µg/mL and 35.8 µg/mL and 33.0 µg/mL and 28.0 µg/mL and 28.5 µg/mL and 27.5 µg/mL and 38.6 µg/mL"},
      {"measurement": "Cmax", "setting": "Phase 1b, individual subject", "result": "32.4 µg/mL and 32.6 µg/mL and 27.6 µg/mL and 42.2 µg/mL and 47.6 µg/mL and 34.3 µg/mL and 37.7 µg/mL and 34.1 µg/mL and 36.4 µg/mL and 32.0 µg/mL and 29.9 µg/mL and 29.2 µg/mL and 38.6 µg/mL"},
      {"measurement": "T1/2", "setting": "Phase 1b, individual subject", "result": "43.3 h and 61.4 h and 34.4 h and 38.4 h and 33.6 h and 46.8 h and 34.5 h and 33.4 h and 27.7 h and 83.0 h and 45.5 h and 42.6 h and 77.9 h"},
      {"measurement": "Tmax", "setting": "Phase 1b, individual subject", "result": "3.00 h and 1.00 h and 0.500 h and 0.170 h"}
    ]}
  ]
}
